The numbers were not newly measured in publication PMC12667676, which cites them from elsewhere.

The target in the data set is MCHR1 (Homo sapiens) (UniProt Q99705).

pKd: −log10 of the molar value.

Chain of UniProt Q99705 (Q99705 whole entry): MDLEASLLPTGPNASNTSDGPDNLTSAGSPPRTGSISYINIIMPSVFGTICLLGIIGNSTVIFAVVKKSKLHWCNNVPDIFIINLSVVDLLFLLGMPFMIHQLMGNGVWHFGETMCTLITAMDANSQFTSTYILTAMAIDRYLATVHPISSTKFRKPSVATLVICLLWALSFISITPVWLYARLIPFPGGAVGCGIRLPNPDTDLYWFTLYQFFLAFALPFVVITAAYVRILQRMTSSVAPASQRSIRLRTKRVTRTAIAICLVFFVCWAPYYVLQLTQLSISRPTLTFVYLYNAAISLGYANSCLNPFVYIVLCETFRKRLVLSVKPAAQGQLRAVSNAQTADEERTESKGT

A word on the pKd: it is the Kd on a negative log10 scale, so that one unit is a factor of ten. On to “melanin-concentrating hormone (from UniProt P20382)”, for which the pKd was 8.51.
